This note sets out measurements from publication PMC4749977, “Alp7/TACC-Alp14/TOG generates long-lived, fast-growing MTs by an unconventional mechanism” (Scientific Reports, 2016).

B4: S. pombe single isoform (α1β) tubulin (complex)
chain 1: MREVISVHVGQAGVQIGNACWELYCLEHGIGPDGFPTENSEVHKNNSYLNDGFGTFFSETGQGKFVPRSIYVDLEPNVIDQVRTGPYKDLFHPEQMVTGKEDASNNYARGHYTVGKEMIDSVLERIRRMADNCSGLQGFLVFHSFGGGTGSGLGALLLERLNMEYGKKSNLQFSVYPAPQVSTSVVEPYNSVLTTHATLDNSDCTFMVDNEACYDICRRNLDIERPTYENLNRLIAQVVSSITASLRFAGSLNVDLNEFQTNLVPYPRIHFPLVTYSPIVSAAKAFHESNSVQEITNQCFEPYNQMVKCDPRTGRYMATCLLYRGDVIPRDVQAAVTSIKSRRTIQFVDWCPTGFKIGICYEPPQHVPGSGIAKVNRAVCMLSNTTSIAEAWSRLDHKFDLMYSKRAFVHWYVGEGMEEGEFSEAREDLAALERDYEEVGQDSMDNEMYEADEEY
chain 2: MREIVHIQAGQCGNQVGAAFWSTIADEHGLDSAGIYHGTSEAQHERLNVYFNEAAGGKYVPRAVLVDLEPGTMDAVKSGKFGNLFRPDNIIYGQSGAGNIWAKGHYTEGAELADAVLDVVRREAEACDALQGFQLTHSLGGGTGSGMGTLLLSKIREEYPDRMMATFSVAPAPKSSDTVVEPYNATLSMHQLVENSDETFCIDNEALSSIFANTLKIKSPSYDDLNHLVSAVMAGVTTSFRFPGELNSDLRKLAVNMVPFPRLHFFMVGFAPLAAIGSSSFQAVSVPELTQQMFDANNMMVAADPRHGRYLTVAALFRGKVSMKEVDEQIRSVQTKNSAYFVEWIPDNVLKAVCSVPPKDLKMSATFIGNSTSIQEIFRRLGDQFSAMFRRKAFLHWYTGEGMDEMEFTEAESNMNDLVSEYQQYQEAGIDEGDEDYEIEEEKEPLEY
notes: alpha-1 tubulin (α1) of S. pombe, from strain mmsp174 (atb2 replaced by nda2+); beta tubulin (β) of S. pombe, from strain mmsp174; Stands both as the free GTP-tubulin heterodimer and as the growing plus end of the microtubule polymerised from it; which of the two is meant is told in the assay's format and the quantity; also called GTP-tubulin; T (tubulin dimer); source: purified from S. pombe …

In data set [1] the target is S. pombe dual-isoform (α1β + α2β) tubulin (S. pombe) (UniProt P04688). In words: DIC video microscopy of microtubule growth; addition of GTP-tubulin to plus and minus ends of MTs nucleated by axoneme fragments; growth rate against tubulin concentration, linear regression, apparent rate constants; 100 mM K-PIPES, 1 mM MgSO4, 2 mM EGTA, 1 mM DTT pH 6.9, 1 mM GTP, no glycerol, 25 °C.

Data set [2] concerns the molecule itself. In words: glycerol gradient centrifugation; 5-40% glycerol gradient of purified Alp14, Alp7 and tubulin, alone or mixed; tubulin as GTP-tubulin where stated; fractions on SDS-PAGE with Coomassie staining.
The target in data set [3] is B4. In words: microtubule growth rates (dark-field microscopy) with Alp14, fit of a kinetic model; Alp14-facilitated pathway T + M + E = TE + M = E + (M+1); Alp14 resident at the plus end of S. pombe α1β microtubules grown from GMPCPP seeds; 6 µM or 0.5 µM tubulin, nanomolar Alp14, PEM100, 25 °C; constants are parameters fitted to or constrained by the growth data, steady state assumed. Particulars: both partners purified.

Data set [4] has as its target B4. Described as above. The conditions noted are these: both partners purified. This is another data set of the same source.
Data set [5] deals with the molecule itself. In words: microtubule growth rates (VE-DIC video microscopy) against tubulin concentration, fit of a bimolecular reaction; GTP-tubulin dimer adding to and leaving the microtubule plus end; single isoform S. pombe tubulin in PEM at 25 °C, without Alp14; apparent rate constants per microtubule end in dimers.

On to “S. pombe dual-isoform (α1β + α2β) tubulin (from UniProt P04688 1-455; P04689 1-449; P05219 1-448) (complex)”, for which, in data set [1], the Kd = koff/kon (critical concentration), minus end is 1900 nM; the Kd = koff/kon (critical concentration), plus end was 2000 nM; the koff, minus end is 3.1 nm/s; the koff, plus end amounted to 9.3 nm/s. For the same molecule, in data set [1], the kon, minus end (nm s^−1 μM^−1) was found to be 1.6 and the kon, plus end (nm s^−1 μM^−1) worked out at 4.7.

B1: Alp7, full length, with an N-terminal avi-tag (natural protein, S. pombe, UniProt Q9URY2 1-474, looked up)
chain: MSDIVSSSTDYSRRSPSSSSIGTNETDHTGFHEKRQGASSESLIPPAQRSSEESMPAPKLFPKLTSKPNPQLNLKDTLNKRVSDRLQALELNKSFDFSGTPRPMHPISHPLSQHKTPEFKHRKRNVESILTPKNPSLFSSSNAASQRGSLNTAPSNFAYSHSSSLQTSASSRPPVLSNGSFPRQTNTAPLNPPVHLKDNIRNSATPSTSQADIPTQYPINSTQKQQAKYEAEIEGYKAKLAGTYHEISVLQNTIVNVSGQLIAVNDQLQQLRSGKASTSPSTKDTNMRLVEGHNEETLALQRGKYTQEEVDKLIQERMEKVAEDLHAQYSAKHTQKINAFKANYARKYEATIQELQNQIGTAPNAPKISNSNWEEERRALKADNQTLQKQLEKAIQERQDMSDFLNNFKADMAKSDKLLMQQQSQQTGDLETLRLQLQALQEELRVEREERQQLIQMSEDLVIAMDQLNLEQKS
modifications: biotin on the AviTag (BirA ligase co-expressed to ensure biotinylation)
notes: Alp7 (Mia1p), TACC-family protein of S. pombe, full length; gene PCR-amplified from wild-type genomic S. pombe DNA; also called Alp7/TACC; Mia1p; source: Sf9 insect cells (baculovirus, BirA ligase co-expressed), purified on monomeric avidin agarose
As to B1, the binding result in data set [2] is “binds”.

B2: Alp14 (full length, S. pombe TOG-family microtubule polymerase) (enzyme, UniProt O94534 1-809, looked up)
chain: MSQDQEEDYSKLPLESRIVHKVWKVRLSAYEECSKSFSLSADGSDNCFELWNNQSELWKSVLTDSNVAAQEAGTAAFVAYCRFSDPSHLLKAREISVLSISEKCLTSPRAGTRENALEALMLLVEADSAAPVIESIIPSLSARSPKVIASNVAAIASLVEQFGAKVIPSKMIIPHISNLFGHADKNVRKEASRLTVNIYRWTGDPLKDLLFKDLRPVQTKELESLFAELPTEPPKQTRFLKSQQPTSEPNVETQVEEQPALENEESEPEPSDDQFDLVEEVDVLPNVDPNLETLMASSKWKDRKEALDKLLPVLSQPKIKDNDFFNLVAILTKSVSKDANIMVVINAAHCIQAMAKGLRSNFSKYASTSINALLERSKEKKANVIESLSSAMDAVLATSSLDDLAELIASFAGNKNPQIKSSCFSLFSRSFSNMTSLPSKFTVDTCAKACVPGVSDTFEPVRSAAAEALGVLMKLVGERAINQYLSPLDDIRKSKIRSFYETATVKAKAPTKKSKVKPSKQEESKVVVPSNAKAVKKSVVPSSPVVPSPRKATNKSLSMDVSKGNAFENGPLLPRPTTRPVSRGLSRGTSSSLQQKVKASTPLNSGALNETVQNLKNMELDDPAPQPAKHSRVDRYEHPKVLEDNDSTISSLESLKRENEELREQLKVEHEENISMQKQLSELKGELNTLRSARKASPIGDRKPAFMRRANTDFLELSTSPSFQRSVREFEPTRPKLYSSIDVNQRSPLASAKTNGNFTFHAELPRSPFSSRANNINPDWTKAIDLAAKLKQKITEMKQTDQRHQGLIH
notes: Alp14, S. pombe, full length; gene PCR-amplified from wild type genomic S. pombe DNA; also called Alp14/TOG
Consider B2, for which, in data set [3], the Kd – broadly, the free concentration of one partner at which half of the binding sites on the other are occupied at equilibrium, for simple one-to-one binding – was found to be 6 nM; the dissociation rate constant (koff) (in general, the rate constant with which the complex falls apart) fell in the range of 1 to 15 s⁻¹; the on-rate constant (kon) (usually a measure of how fast the partners come together) is above 4e+07 M⁻¹ s⁻¹. Moreover, the Kd in data set [4] is above 5 nM.

B3: Alp14, full length, with a C-terminal his or Avi tag (natural protein, S. pombe, UniProt O94534 1-809, looked up)
chain: MSQDQEEDYSKLPLESRIVHKVWKVRLSAYEECSKSFSLSADGSDNCFELWNNQSELWKSVLTDSNVAAQEAGTAAFVAYCRFSDPSHLLKAREISVLSISEKCLTSPRAGTRENALEALMLLVEADSAAPVIESIIPSLSARSPKVIASNVAAIASLVEQFGAKVIPSKMIIPHISNLFGHADKNVRKEASRLTVNIYRWTGDPLKDLLFKDLRPVQTKELESLFAELPTEPPKQTRFLKSQQPTSEPNVETQVEEQPALENEESEPEPSDDQFDLVEEVDVLPNVDPNLETLMASSKWKDRKEALDKLLPVLSQPKIKDNDFFNLVAILTKSVSKDANIMVVINAAHCIQAMAKGLRSNFSKYASTSINALLERSKEKKANVIESLSSAMDAVLATSSLDDLAELIASFAGNKNPQIKSSCFSLFSRSFSNMTSLPSKFTVDTCAKACVPGVSDTFEPVRSAAAEALGVLMKLVGERAINQYLSPLDDIRKSKIRSFYETATVKAKAPTKKSKVKPSKQEESKVVVPSNAKAVKKSVVPSSPVVPSPRKATNKSLSMDVSKGNAFENGPLLPRPTTRPVSRGLSRGTSSSLQQKVKASTPLNSGALNETVQNLKNMELDDPAPQPAKHSRVDRYEHPKVLEDNDSTISSLESLKRENEELREQLKVEHEENISMQKQLSELKGELNTLRSARKASPIGDRKPAFMRRANTDFLELSTSPSFQRSVREFEPTRPKLYSSIDVNQRSPLASAKTNGNFTFHAELPRSPFSSRANNINPDWTKAIDLAAKLKQKITEMKQTDQRHQGLIH
notes: Alp14, TOG-family microtubule polymerase of S. pombe, full length; gene PCR-amplified from wild-type genomic S. pombe DNA; also called Alp14/TOG; full length Alp14
Regarding B3, the binding result in data set [2] is “binds”.

Take B4: in data set [5], the koff was found to be 6.6 s⁻¹ and the kon was 5.5e+06 M⁻¹ s⁻¹.
